For test [1], the target named is T1, PfCSP_(71–104) (N-CSP construct) (Plasmodium falciparum, UniProt P19597).
T1 construct: Plasmodium falciparum circumsporozoite protein residues 71–104, cloned into a pETM-22 vector; pETM-22 adds, as far as I recall, an N-terminal thioredoxin and His6 with a 3C protease site; source: E. coli BL21(DE3), purified (HisTrap, SEC)
T1 chain: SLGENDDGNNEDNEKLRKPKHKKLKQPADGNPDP
Kind of test: ELISA; PfCSP71–104 coated at 50 ng/well; mAb at 4.00, 1.00, 0.25 and 0.06 µg/ml; goat anti-human IgG-HRP; area under the curve. The following applies: both partners purified.

Test [2] addresses PfCSP on the surface of live Pf NF54 sporozoites (Plasmodium falciparum NF54 (endogenous in sporozoites)) (UniProt P19597). Kind of test: flow cytometry on cells; imaging flow cytometry (ImageStreamX Mk II) of live (propidium iodide-negative) Pf salivary gland sporozoites; mAb 1 µg/ml, 30 min 4°C, Cy5 anti-human IgG1.
Test [3] has the same target. In words: flow cytometry on cells; imaging flow cytometry (ImageStreamX Mk II) of live (propidium iodide-negative) Pf midgut sporozoites isolated from oocysts; mAb 1 µg/ml, 30 min 4°C, Cy5 anti-human IgG1.
In test [4] the target is T1, PfCSP_(71–104) (N-CSP construct). Kind of test: SEC; 5D5 Fab complexed with PfCSP71–104 at 1:1 molar ratio, with or without 100-fold molar excess of heparin sodium salt; Superdex 200 Increase 10/300 GL; peak fractions on non-reducing SDS-PAGE. The settings on record: both partners purified. For orientation: SEC sorts molecules by how far they enter the pores of the column.

The target of another test is T2, PfCSP_(81–98) peptide (Plasmodium falciparum, UniProt P19597).
T2 construct: Plasmodium falciparum circumsporozoite protein residues 81–98; Only residues 81–92 are resolved in the crystal structure; also called N-CSP peptide; source: synthetic peptide, bought: GenScript
T2 chain: EDNEKLRKPKHKKLKQPA
Kind of test: crystal structure; 5D5 Fab and PfCSP81–98 peptide mixed 1:5; 20% (wt/vol) PEG 3350, 0.2 M di-ammonium citrate; 1.85 Å. The following applies: both partners purified.

Chain of PfCSP on the surface of live Pf NF54 sporozoites (Plasmodium falciparum NF54 (endogenous in sporozoites)) (P19597 19-374): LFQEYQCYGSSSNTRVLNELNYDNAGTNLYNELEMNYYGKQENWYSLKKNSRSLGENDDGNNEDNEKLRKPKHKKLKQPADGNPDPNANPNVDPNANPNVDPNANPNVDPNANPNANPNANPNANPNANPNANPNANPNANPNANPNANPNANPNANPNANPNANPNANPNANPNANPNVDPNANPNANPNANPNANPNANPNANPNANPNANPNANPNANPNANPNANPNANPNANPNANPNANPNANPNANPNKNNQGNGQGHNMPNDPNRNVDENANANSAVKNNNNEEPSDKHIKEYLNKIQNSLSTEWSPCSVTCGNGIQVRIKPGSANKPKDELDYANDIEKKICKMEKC

B1: 5D5 IgG (5D5 variable regions on human Igγ1 and Igκ, for non-yeast display experiments) (antibody, V domains shown)
VH: QVHLQQSGGEVARPGASVKLSCKASGYTFTGYGLSWVKQRTGQGLEWIGEIYPRSGNTYYNEKFKGKATLTADKSSSTAYMELRSLTSEDSAVYFCARSWGNSSFVYWGQGTLVTVSA
VL: SIVMTQTPKFLLVSAGDRVTITCKASQSVTNDVTWYQQKPGQSPKLLIYYASNRYTGVPDRFTGSGYGTDFTFTISTVQAEDLAVYFCQQDYSSPFTFGSGTKLEIK
notes: as the heavy chain of m1 (5D5 VH + human Igγ1-CH1); two residues that replace the two stop codons of the Fab heavy chain vector; human immunoglobulin gamma-1 constant region, the part after the Fab heavy chain through the CH2 and CH3 domains; as the light chain of m1 (5D5 VL + human Igκ); Chimeric human IgG1; detected with anti-human IgG1 or anti-human IgG secondary antibodies; also called mAb …
Turning to B1, in test [1], the binding result is “binds”. In addition, in test [2], the fold decrease in MFI of mAb-bound sporozoites against mAb 1210 came to 2 fold; the mAb-bound sporozoites (pos1) of tot1 487, Exp 2 was found to be 82 sporozoites; the mAb-bound sporozoites (pos1) of tot1 545, Exp 1 is 176 sporozoites; the mAb-bound sporozoites (pos1) of tot1 1096, Exp 3 amounted to 316 sporozoites. In addition, in test [2], the proportion of mAb-bound sporozoites stood at 27%. Also, in test [3], the mAb-bound sporozoites (pos1) of tot1 262, Exp 1 came out at 67 sporozoites; the mAb-bound sporozoites (pos1) of tot1 728, Exp 2 was found to be 229 sporozoites; the mAb-bound sporozoites (pos1) of tot1 1,456, Exp 3 worked out at 366 sporozoites.

B2: 5D5 Fab expressed in HEK293F cells (complex glycan at H.Asn98) (Fab, V domains shown)
VH: B1 VH
VL: B1 VL
notes: murine mAb 5D5 VH cloned immediately upstream of human Igγ1-CH1; murine mAb 5D5 VL cloned immediately upstream of human Igκ; Chimeric Fab (mouse variable, human constant domains); The crystal structure used this glycoform; also called HEK293F–expressed 5D5 Fab; source: HEK293F, transient cotransfection, purified (KappaSelect, MonoS, SEC)
Turning to B2, the binding result (in test [4]; in the test with PfCSP_(81–98) peptide) was “binds” throughout.
